# Test results as given in patent publication US11397178B2, “Method of predicting progression of idiopathic pulmonary fibrosis and monitoring of therapeutic efficacy” (Cedars-Sinai Medical Center, priority 2016, dated 2022).
# “Also recorded” adds a separate entry of the source.
# Columns and labels:
# CCR10+ EphA3+ cells = assay: Humanized NSG mouse model of IPF: KB004 / KB243 mAb treatment (hydroxyproline, Masson's trichrome, flow cytometry); type: in vivo, human IPF cells in NSG mice
# Description: Six to eight-week old, female, pathogen free NOD Cg-Prkdc^SCID IL2rg^Tm1wil Szi (NSG) or NOD.Cg-Prkdc^SCID IL2rg^tm1Wil Tg(CAG-EGFP) 10sb/SzJ (NSG-GFP) were purchased from Jackson Laboratories and housed in Cedars-Sinai Medical Center's high isolation animal rooms. NSG mice were allowed a minimum of one week to acclimate in the facility and then these mice either received nothing (i.e., non-humanized) 1×10^6 IPF cells by intravenous injection (i.e. humanized). In most in vivo experiments, the IPF cells used were removed from liquid N2 storage, rapidly thawed, and washed in serum-free medium prior to injection into NSG mice. […] […] Other groups of humanized NSG mice received either vehicle (i.e., solutol) or BIBF1120 (Cayman Chemicals) by oral gavage beginning at day 35 after IPF cell injection. Vehicle or drug was administered 5 days a week until day 63 after IPF cell injection. All NSG groups were monitored daily and mice were sacrificed if there is evidence for morbidity such as weight loss of more than 20%, loss of fur, paralysis and/or lack of responsiveness when handled.
# Murine lung cellular suspensions were generated using a mouse lung dissociation kit, C-tubes, and a GentleMacs dissociator (Miltenyi Biotech). Spleens were dissociated using a sterile rubber tip of 1 ml syringe plunger and 100 μm 50 ml tube filters (BD bioscience) as follows: isolated spleens were placed in 1 ml of sterile complete medium until all the samples were collected. Sterile 50 ml conical tube filters were placed on top of sterile 50 ml conical tubes and were equilibrated by pipetting 1 ml of calcium and magnesium free DPBS (DBPS; Cellgro) through the filters. Spleens were transferred to a sterile 50 ml filter, cellular suspensions were generated using a sterile rubber tip of a syringe plunger, and splenic material was flushed with 5 ml of DPBS. Lung and splenic cell suspensions were centrifuged and resuspended in 1 ml of RBC lysis buffer (Biolegend), incubated at room temperature for 1-2 min and then equilibrated by adding 25 ml of DPBS to each tube. Cells were centrifuged and resuspended in flow cytometric wash/staining buffer (DPBS+2% FBS) in the presence of human and mouse Fc receptor blocking antibodies (Biolegend). Cells were then stained with anti-human-CD45, -EpCAM and -CCR10 antibodies for 20 min at 4° C. Unstained, isotype controls, fluorescent minus one controls and staining in non-humanized murine lung and spleen suspensions were utilized to gate out any non-specific antibody binding and background fluorescence. CCR10 antibodies were validated via the enrichment for CCR10 transcripts in magnetically sorted CCR10^+ cells versus non-sorted normal and IPF explant cells (FIG. 35). Flow cytometric data were acquired within one week of staining using a LSR Frotessa (BD Biosciences) or MACSQuant 10 (Miltenyi Biotech) flow cytometers and data were analyzed using Flowjo software V10.2 (Treestar Inc.). The resulting gates from non-humanized NSG-GFP mice were used to identify human CD45-, EPCAM-, CCR10-, and PDGFRα-stained cells (FIGS. 36C & 21F).
# Lung tissue was fixed in 10% NBF solution for 24 h and subsequently transferred into tissue cassettes and kept in a 70% ethanol solution for approximately 24 h, Lungs were then processed using routine histology techniques and stained using Masson's trichrome. A Zeiss Axio Observer Z1 microscope and the Zeiss Zen 2012 v 1.1.2.0 software (Zeiss) were used to obtain representative images.
# Total lung hydroxyproline was analyzed. […] On the day of the assay, tissues were thawed and […] of distilled water (dH2O) was added to the tissues. Tissues were homogenized using a micro-sample homogenizer (Pro Scientific) as follows: the homogenizing tip was washed in 70% ethanol, then dH2O and then utilized to homogenize the tissues. The homogenizer was washed in dH2O between samples and a new batch of dH2O was utilized after 5 samples. […]
# EphA3 expressing cells = assay: IPF explant cell challenged NOD/SCID mice treated with anti-EphA3 antibody; type: in vivo; details: listed as afucosylated anti-EphA3 antibody
# Description: IHC analysis indicated the presence of these cells near honeycombing cysts, in the interstitium and their expansion in IPF lung biopsies and explants relative to normal lungs.
# [1] = system: murine IL-2, IL-10, IL-12-p70, and TNFα; assay: Bioplex analysis of mouse cytokines in BAL of humanized NSG mice; type: in vivo; details: days 0 to 35 or days 35 to 63
# Procedure: (A-E) Murine IL-2 (A), IL-10 (B), IL12-p70 (C), IFNγ, and TNFα in the BAL from non-humanized and humanized NSG mice treated with KB004 or KB243 from days 0 to 35, or from days 35 to 63 after IPF cell injection. Mouse cytokines were measured using Bioplex and data shown are mean±sem; n=5-10/group. ****p≤0.0001
# Lungs in non-humanized and humanized NSG mice were washed using 1 ml of saline solution, and the resulting BAL was centrifuged to remove cells and the supernatants were stored at −80° C. until analysis. Mouse cytokines in the BAL were measured using predesigned Bioplex assays (Bio-Rad) as recommended by the manufacturer, […]
# [2] = prophylactic, 5 mg/kg days 0 to 35, day 35, flow cytometry
# [3] = treatment beginning at day 7, day 35
molecule,measurement,setting,value
"KB004: afucosylated anti-EphA3 mAb supplied by Kalobios; targets EphA3+ cells via antibody-dependent cell-mediated cytotoxicity (ADCC) (antibody, chains of the INN, looked up, V domains shown) VH: QVQLVQSGAEVKKPGASVKVSCKASGYTFTGYWMNWVRQAPGQGLEWMGDIYPGSGNTNYDEKFQGRVTMTRDTSISTAYMELSRLRSDDTAVYYCARGGYYEDFDSWGQGTTVTVSS VL: DIQMTQSPSFLSASVGDRVTITCRASQGIISYLAWYQQKPEKAPKRLIYAASSLQSGVPSRFSGSGSGTEFTLTISSLQPEDFATYYCGQYANYPYTFGQGTKLEIK",development of lung fibrosis,CCR10+ EphA3+ cells; prophylactic treatment over 35 days,completely prevented
same,"CCR10+ CD45+ cells in lungs, KB004 versus KB243",CCR10+ EphA3+ cells; [2],significant reduction
same,"CCR10+ Lin- cells in lungs, KB004 versus KB243",CCR10+ EphA3+ cells; [2],significant reduction
same,hydroxyproline in the lungs,"CCR10+ EphA3+ cells; prophylactic, 5 mg/kg i.p. twice weekly days 0 to 35, day 35",significantly reduced
same,numbers of CD45+ and Lin- CCR10+ cells and pulmonary fibrosis,CCR10+ EphA3+ cells; therapeutic treatment from days 35 to 63,failed to reduce
same,"histological appearance, KB243 versus KB004","CCR10+ EphA3+ cells; therapeutic, days 35 to 63",no significant difference
same,"lung hydroxyproline, KB243 versus KB004","CCR10+ EphA3+ cells; therapeutic, days 35 to 63",no significant difference
same,"CCR10+ cell numbers, KB243 versus KB004","CCR10+ EphA3+ cells; therapeutic, days 35 to 63, flow cytometry",no significant difference
same,hydroxyproline in humanized NSG lungs relative to non-humanized mice,"CCR10+ EphA3+ cells; therapeutic, starting at day 35, day 63",elevated
same,"histological interstitial consolidation, KB004 compared to KB243",CCR10+ EphA3+ cells; [3],ameliorated
same,"number of CD45+ CCR10+ cells, KB004 compared to KB243",CCR10+ EphA3+ cells; [3],significant reduction
same,"lung hydroxyproline, KB004 compared to KB243","CCR10+ EphA3+ cells; treatment beginning at day 7 after IPF cell injection, day 35",lower
same,fibrotic response / lung remodeling,EphA3 expressing cells,ameliorated the fibrotic response; also recorded: ameliorated lung remodeling
same,inflammation in the mouse lung (BAL murine cytokines),[1],neither KB243 or KB004 treatments in humanized NSG mice evoked inflammation
